Laboratory results published in article PMC11241209, “Elucidation of the Gemcitabine Transporters of Escherichia coli K-12 and Gamma-Proteobacteria Linked to Gemcitabine-Related Chemoresistance” (International Journal of Molecular Sciences, 2024).
Read-outs that look alike come from different tables or passages of the source.

What was measured:
KpNupC = biological target: T1, KpNupC (Klebsiella pneumoniae, UniProt A0A0H3H172); assay: inhibition of [3H]-gemcitabine uptake in E. coli JW2389; assay type: cell-based
T1 construct: gene KPHS_38160; full-length, C-terminal biotin-acceptor domain tag (pT7-5/-BAD), expressed in E. coli JW2389 (nupC knockout)
T1 sequence (A0A0H3H172 entry or part of it): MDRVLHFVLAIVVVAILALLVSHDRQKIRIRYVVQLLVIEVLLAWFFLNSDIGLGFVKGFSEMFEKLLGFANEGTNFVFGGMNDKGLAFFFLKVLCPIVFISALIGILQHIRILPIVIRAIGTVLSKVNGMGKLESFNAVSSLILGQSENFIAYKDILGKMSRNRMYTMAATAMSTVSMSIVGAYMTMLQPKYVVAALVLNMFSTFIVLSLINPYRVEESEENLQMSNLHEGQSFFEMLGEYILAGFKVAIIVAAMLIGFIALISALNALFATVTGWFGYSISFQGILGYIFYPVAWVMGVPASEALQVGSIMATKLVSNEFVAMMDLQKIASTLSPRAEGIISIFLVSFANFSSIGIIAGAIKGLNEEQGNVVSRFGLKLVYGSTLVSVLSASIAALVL
Text: inhibition of [3H]-gemcitabine uptake in E. coli JW2389 on KpNupC

NupC = biological target: T2, NupC (Escherichia coli, UniProt P0AFF2); assay: as above; assay type: cell-based; conditions: read-out: Inhibition by Other Nucleosides / Ki (μM) (Adenosine)
T2 construct: full-length, C-terminal biotin-acceptor domain tag (pT7-5/-BAD), expressed in E. coli JW2389 (nupC knockout)
T2 sequence (P0AFF2 1-400): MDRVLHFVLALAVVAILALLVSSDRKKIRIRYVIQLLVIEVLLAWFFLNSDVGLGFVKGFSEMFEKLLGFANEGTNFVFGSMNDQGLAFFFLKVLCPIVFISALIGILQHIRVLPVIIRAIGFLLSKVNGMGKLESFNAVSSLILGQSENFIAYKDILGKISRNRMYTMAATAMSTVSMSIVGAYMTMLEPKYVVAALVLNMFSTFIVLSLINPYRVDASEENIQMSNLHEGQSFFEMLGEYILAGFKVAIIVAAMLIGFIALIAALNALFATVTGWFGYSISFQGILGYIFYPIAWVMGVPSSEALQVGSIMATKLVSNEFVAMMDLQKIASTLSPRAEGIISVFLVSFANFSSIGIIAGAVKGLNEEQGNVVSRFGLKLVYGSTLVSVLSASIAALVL
Text: inhibition of [3H]-gemcitabine uptake in E. coli JW2389 on NupC

KpNupC2 = biological target: T3, KpNupC2 (Klebsiella pneumoniae, UniProt A6T7A8); assay: as above; assay type: cell-based
T3 construct: gene nupC; full-length, C-terminal biotin-acceptor domain tag (pT7-5/-BAD), expressed in E. coli JW2389 (nupC knockout)
T3 sequence (A6T7A8 entry or part of it): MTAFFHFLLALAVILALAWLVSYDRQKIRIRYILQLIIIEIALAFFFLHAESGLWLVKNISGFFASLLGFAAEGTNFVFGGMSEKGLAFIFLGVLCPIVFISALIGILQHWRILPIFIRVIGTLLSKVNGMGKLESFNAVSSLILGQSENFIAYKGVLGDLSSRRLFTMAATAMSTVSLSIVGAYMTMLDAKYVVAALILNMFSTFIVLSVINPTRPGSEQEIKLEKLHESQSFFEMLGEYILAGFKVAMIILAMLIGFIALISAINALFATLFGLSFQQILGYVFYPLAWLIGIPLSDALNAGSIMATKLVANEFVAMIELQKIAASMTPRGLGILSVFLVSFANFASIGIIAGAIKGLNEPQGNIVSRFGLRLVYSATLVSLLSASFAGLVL
Text: inhibition of [3H]-gemcitabine uptake in E. coli JW2389 on KpNupC2

[1] = tested on: Nc1ccn([C@@H]2O[C@H](CO)[C@@H](O)C2(F)F)c(=O)n1; assay: cells, lysate or membranes; assay type: cell-based, Citrobacter freundii; conditions: labelled compound, pH 6.5, 25 °C, glycerol-energized cells
CfNupG = biological target: T4, CfNupG (Citrobacter freundii, UniProt A0A0D7LJ63); assay: inhibition of [3H]-gemcitabine uptake in E. coli JW2389; assay type: cell-based; conditions: read-out: Inhibition by Other Nucleosides / Ki (μM) (Cytidine)
T4 construct: gene nupG; full-length, C-terminal biotin-acceptor domain tag (pT7-5/-BAD), expressed in E. coli JW2389 (nupC knockout)
T4 sequence (A0A0D7LJ63 1-418): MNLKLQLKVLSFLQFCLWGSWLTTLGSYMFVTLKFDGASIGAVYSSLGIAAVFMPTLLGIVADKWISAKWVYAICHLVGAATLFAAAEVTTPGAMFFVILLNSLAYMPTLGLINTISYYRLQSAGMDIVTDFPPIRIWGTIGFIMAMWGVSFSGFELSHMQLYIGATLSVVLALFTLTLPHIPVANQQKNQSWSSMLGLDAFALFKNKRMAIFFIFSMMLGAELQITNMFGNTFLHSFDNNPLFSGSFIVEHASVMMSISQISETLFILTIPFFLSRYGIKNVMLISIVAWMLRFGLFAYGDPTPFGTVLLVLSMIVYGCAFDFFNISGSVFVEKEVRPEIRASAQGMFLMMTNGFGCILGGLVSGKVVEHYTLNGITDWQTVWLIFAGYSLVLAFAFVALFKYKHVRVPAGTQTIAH
Text: inhibition of [3H]-gemcitabine uptake in E. coli JW2389 on CfNupG

CfNupC = biological target: T5, CfNupC (Citrobacter freundii, UniProt A0A0D7LF62); assay: as above; assay type: cell-based; conditions: read-out: Inhibition by Other Nucleosides / Ki (μM) (Cytidine)
T5 construct: gene nupC; full-length, C-terminal biotin-acceptor domain tag (pT7-5/-BAD), expressed in E. coli JW2389 (nupC knockout)
T5 sequence (A0A0D7LF62 entry or part of it): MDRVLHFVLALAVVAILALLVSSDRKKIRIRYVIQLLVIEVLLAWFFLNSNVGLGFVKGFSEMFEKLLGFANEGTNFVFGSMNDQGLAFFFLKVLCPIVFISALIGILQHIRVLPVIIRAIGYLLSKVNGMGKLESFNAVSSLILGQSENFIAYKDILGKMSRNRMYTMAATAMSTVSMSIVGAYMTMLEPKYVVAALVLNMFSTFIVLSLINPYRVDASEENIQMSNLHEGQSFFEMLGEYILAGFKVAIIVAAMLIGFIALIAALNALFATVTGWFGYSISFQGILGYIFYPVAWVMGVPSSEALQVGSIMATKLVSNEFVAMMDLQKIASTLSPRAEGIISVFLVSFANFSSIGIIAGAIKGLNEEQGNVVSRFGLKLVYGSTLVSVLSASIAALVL
Text: inhibition of [3H]-gemcitabine uptake in E. coli JW2389 on CfNupC

KpNupG = biological target: T6, KpNupG (Klebsiella pneumoniae, UniProt A6TDX2); assay: as above; assay type: cell-based
T6 construct: gene nupG; full-length, C-terminal biotin-acceptor domain tag (pT7-5/-BAD), expressed in E. coli JW2389 (nupC knockout)
T6 sequence (A6TDX2 1-417): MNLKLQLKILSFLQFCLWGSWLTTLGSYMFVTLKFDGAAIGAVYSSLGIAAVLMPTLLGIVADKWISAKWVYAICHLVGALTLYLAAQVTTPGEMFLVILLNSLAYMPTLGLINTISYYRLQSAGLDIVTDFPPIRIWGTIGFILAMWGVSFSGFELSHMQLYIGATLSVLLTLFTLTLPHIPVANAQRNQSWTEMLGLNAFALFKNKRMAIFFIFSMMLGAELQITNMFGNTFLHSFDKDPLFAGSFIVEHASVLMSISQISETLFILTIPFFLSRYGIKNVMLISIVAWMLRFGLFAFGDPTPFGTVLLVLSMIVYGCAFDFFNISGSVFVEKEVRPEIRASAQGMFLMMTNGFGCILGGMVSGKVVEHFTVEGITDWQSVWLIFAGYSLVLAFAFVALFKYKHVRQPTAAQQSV
Text: inhibition of [3H]-gemcitabine uptake in E. coli JW2389 on KpNupG

[2] = tested on: Nc1ccn([C@@H]2O[C@H](CO)[C@@H](O)C2(F)F)c(=O)n1; assay: cells, lysate or membranes; assay type: cell-based, Escherichia coli; conditions: labelled compound, pH 6.5, 25 °C, glycerol-energized cells
NupG = biological target: T7, NupG (Escherichia coli, UniProt P0AFF4); assay: inhibition of [3H]-gemcitabine uptake in E. coli JW2389; assay type: cell-based
T7 construct: full-length, C-terminal biotin-acceptor domain tag (pT7-5/-BAD), expressed in E. coli JW2389 (nupC knockout)
T7 sequence (P0AFF4 1-418): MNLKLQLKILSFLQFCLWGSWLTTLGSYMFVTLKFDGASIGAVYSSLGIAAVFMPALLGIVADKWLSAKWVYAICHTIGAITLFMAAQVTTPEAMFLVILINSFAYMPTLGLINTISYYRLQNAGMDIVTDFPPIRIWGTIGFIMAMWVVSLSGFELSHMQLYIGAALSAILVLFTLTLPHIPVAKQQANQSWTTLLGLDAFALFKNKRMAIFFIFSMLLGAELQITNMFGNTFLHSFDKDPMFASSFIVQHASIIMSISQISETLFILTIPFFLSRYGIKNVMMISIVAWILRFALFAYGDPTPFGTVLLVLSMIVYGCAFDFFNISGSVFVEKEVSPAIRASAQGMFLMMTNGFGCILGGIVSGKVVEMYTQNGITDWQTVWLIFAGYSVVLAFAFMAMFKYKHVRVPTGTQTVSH
Text: inhibition of [3H]-gemcitabine uptake in E. coli JW2389 on NupG

[3] = tested on: Nc1ccn([C@@H]2O[C@H](CO)[C@@H](O)C2(F)F)c(=O)n1; assay: cells, lysate or membranes; conditions: labelled compound, pH 6.5, 25 °C, glycerol-energized cells
[4] = tested on: Nc1ccn([C@@H]2O[C@H](CO)[C@@H](O)C2(F)F)c(=O)n1; assay: cells, lysate or membranes; assay type: cell-based, Klebsiella pneumoniae; conditions: labelled compound, pH 6.5, 25 °C, glycerol-energized cells
[5] = substrate: Nc1ccn([C@@H]2O[C@H](CO)[C@@H](O)C2(F)F)c(=O)n1; assay: cells, lysate or membranes; conditions: labelled compound, pH 6.5, 25 °C, glycerol-energized cells; remark: listed apart in the source
[6] = read-out: Inhibition by Other Nucleosides / Ki (μM) (Cytidine)

Molecule Nc1ncnc2c1ncn2[C@@H]1O[C@H](CO)[C@@H](O)[C@H]1O [adenosine] has a Ki (KpNupC; read-out: Inhibition by Other Nucleosides / Ki (μM) (Adenosine)) of 7.7 ± 0.8 µM and a Ki (NupC) of 5.4 ± 1.4 µM.

O=c1ccn([C@@H]2O[C@H](CO)[C@@H](O)[C@H]2O)c(=O)[nH]1 [uridine] gave a Ki (KpNupC2) of 6.1 ± 1 µM.

CfNupG (Citrobacter freundii) was tested, and the Km [1] was 2.7 ± 0.3 µM, the Vmax [1] was 0.0474 µmol/min/mg and the Vmax/Km [1] was 17200 µL/min/mg.

Nc1ccn([C@@H]2O[C@H](CO)[C@@H](O)[C@H]2O)c(=O)n1 [cytidine] was tested, and the Ki (CfNupG) was 20.2 ± 3.8 µM, the Ki (CfNupC) was 7.2 ± 1.4 µM and the Ki (KpNupC; [6]) was 6.7 ± 1.3 µM. For the same molecule, the Ki (KpNupC2; [6]) was 6.5 ± 1 µM and the Ki (KpNupG; [6]) was 18.1 ± 4 µM.

NupC (Escherichia coli K-12) was tested, and the Km [2] was 9.8 ± 1.0 µM, the Vmax [2] was 0.0994 µmol/min/mg and the Vmax/Km [2] was 10100 µL/min/mg.

In the case of Nc1nc2c(ncn2[C@@H]2O[C@H](CO)[C@@H](O)[C@H]2O)c(=O)[nH]1 [guanosine], the Ki (KpNupG; read-out: Inhibition by Other Nucleosides / Ki (μM) (Guanosine)) is reported as 18.3 ± 4.5 µM and the Ki (NupG) is reported as 15.3 ± 5.8 µM.

“KpNupC (Klebsiella pneumoniae subsp. pneumoniae HS11286)” was tested, and the Km [3] was 10.9 ± 2.0 µM, the Vmax [3] was 0.0928 µmol/min/mg and the Vmax/Km [3] was 8600 µL/min/mg.

CfNupC (Citrobacter freundii) showed a Km [1] of 12.8 ± 1.3 µM, a Vmax [1] of 0.102 µmol/min/mg and a Vmax/Km [1] of 7800 µL/min/mg.

“KpNupC2 (Klebsiella pneumoniae subsp. pneumoniae MGH 78578)” showed a Km [4] of 11.6 ± 3.2 µM, a Vmax [4] of 0.0873 µmol/min/mg and a Vmax/Km [4] of 7500 µL/min/mg.

B1: NupG (Escherichia coli K-12) (protein)
chain: MNLKLQLKILSFLQFCLWGSWLTTLGSYMFVTLKFDGASIGAVYSSLGIAAVFMPALLGIVADKWLSAKWVYAICHTIGAITLFMAAQVTTPEAMFLVILINSFAYMPTLGLINTISYYRLQNAGMDIVTDFPPIRIWGTIGFIMAMWVVSLSGFELSHMQLYIGAALSAILVLFTLTLPHIPVAKQQANQSWTTLLGLDAFALFKNKRMAIFFIFSMLLGAELQITNMFGNTFLHSFDKDPMFASSFIVQHASIIMSISQISETLFILTIPFFLSRYGIKNVMMISIVAWILRFALFAYGDPTPFGTVLLVLSMIVYGCAFDFFNISGSVFVEKEVSPAIRASAQGMFLMMTNGFGCILGGIVSGKVVEMYTQNGITDWQTVWLIFAGYSVVLAFAFMAMFKYKHVRVPTGTQTVSH
With B1 the Km [5] was 2.8 ± 0.4 µM, the Vmax [5] was 0.0461 µmol/min/mg and the Vmax/Km [5] was 16600 µL/min/mg.

B2: KpNupG (Klebsiella pneumoniae subsp. pneumoniae MGH 78578) (protein)
chain: MNLKLQLKILSFLQFCLWGSWLTTLGSYMFVTLKFDGAAIGAVYSSLGIAAVLMPTLLGIVADKWISAKWVYAICHLVGALTLYLAAQVTTPGEMFLVILLNSLAYMPTLGLINTISYYRLQSAGLDIVTDFPPIRIWGTIGFILAMWGVSFSGFELSHMQLYIGATLSVLLTLFTLTLPHIPVANAQRNQSWTEMLGLNAFALFKNKRMAIFFIFSMMLGAELQITNMFGNTFLHSFDKDPLFAGSFIVEHASVLMSISQISETLFILTIPFFLSRYGIKNVMLISIVAWMLRFGLFAFGDPTPFGTVLLVLSMIVYGCAFDFFNISGSVFVEKEVRPEIRASAQGMFLMMTNGFGCILGGMVSGKVVEHFTVEGITDWQSVWLIFAGYSLVLAFAFVALFKYKHVRQPTAAQQSV
B2 showed a Km [5] of 2.8 ± 0.3 µM, a Vmax [5] of 0.0456 µmol/min/mg and a Vmax/Km [5] of 17100 µL/min/mg.
